For orientation: Kd means the equilibrium constant for the complex coming apart. Higher therefore signals a looser complex.

Where two headings read alike, the source gives them in different places.

The record followed here is PMC10120378.

Test in all cases: fluorescence polarization
(Fluorescence polarisation rises when a labelled molecule tumbles more slowly, as on binding a larger partner.)

The target in data set [1] is T1, HUα2 P63A (Escherichia coli (MG1655-derived …, UniProt P0ACF0 1-90, P63A)).
Data set [2] has as its target T2, HUα2 wild-type (Escherichia coli (MG1655-derived …, UniProt P0ACF0 1-90)).
The target of data set [3] is T1, HUα2 P63A. The source holds these as a separate data set.
The target of data set [4] is T2, HUα2 wild-type. This is another data set of the same source.

B1: linear DNA of random sequence (40 bp) (dsDNA)
DNA 1: CCGACTAAGTACATGTGAGAATTTTGCTGCCTTCGAACCT
DNA 2: AGGTTCGAAGGCAGCAAAATTCTCACATGTACTTAGTCGG
With B1, in data set [1], the binding result was “binds”. For the same molecule, binding in data set [2] was put at a Kd of 51 ± 4 nM.

B2: cruciform DNA (structured_DNA)
DNA 1: CCTAGCAAGGGGCTGCTACCTTTGGTAGCAGCCTGAGCGGTGG
DNA 2: CCACCGCTCAACTCAACTGCTTTGCAGTTGAGTCCTTGCTAGG
As to B2, the Kd in data set [3] was found to be 352 nM; in data set [4], 178 ± 22 nM.
